Results from the supplement of paper PMC7125110.
± gives the standard error. Fewer inactive variants are shown than the library holds.

B1: glmS ribozyme (parent)
chain: AUAAAAGCGCCAGAACUACAGAAAUGUAGUUGACGAGGAGGAGGUUUAUCGAAUUUUCGGCGGAUGCCUCCAAA

Key:
Conditions in all cases: with glucosamine-6-phosphate
glucosamine-6-phosphate [1] = variants of: B1; test: self-cleavage kobs at 40 uM GlcN6P; higher = faster cleavage; RNA array
Outline: (§1)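 Barcoded ribozyme variants, transcribed in situ by E. coli RNA polymerase on sequenced MiSeq chips, were followed via a hybridised Cy3 probe at 37 °C. Glucosamine-6-phosphate ranged from 40 μM to 10 mM in HEPES/KCl/Mg(OAc)2 buffer. kobs came from decay fits to per-tile medians, and kcat and KM from weighted Michaelis–Menten fits.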

glucosamine-6-phosphate [2] = variants of: B1; test: self-cleavage kobs at 2500 uM GlcN6P; higher = faster cleavage; RNA array
Outline: as §1

glucosamine-6-phosphate [3] = variants of: B1; test: self-cleavage kobs at 10000 uM GlcN6P; higher = faster cleavage; RNA array
Outline: as §1

glucosamine-6-phosphate [4] = variants of: B1; test: self-cleavage kobs at 640 uM GlcN6P; higher = faster cleavage; RNA array
Outline: as §1

glucosamine-6-phosphate [5] = variants of: B1; test: self-cleavage kobs at 160 uM GlcN6P; higher = faster cleavage; RNA array
Outline: as §1

Variant	self-cleavage kobs at 40 uM GlcN6P (glucosamine-6-phosphate [1]) [s⁻¹]	self-cleavage kobs at 2500 uM GlcN6P (glucosamine-6-phosphate [2]) [s⁻¹]	self-cleavage kobs at 10000 uM GlcN6P (glucosamine-6-phosphate [3]) [s⁻¹]	self-cleavage kobs at 640 uM GlcN6P (glucosamine-6-phosphate [4]) [s⁻¹]	self-cleavage kobs at 160 uM GlcN6P (glucosamine-6-phosphate [5]) [s⁻¹]
G7U G13A A15U U31G U49G C67A	< 1e-05				
A14G A15G G66U	0.0002 ± 4.3e-05	0.00252 ± 0.0011	0.0089 ± 0.0018		
A36U C58U	< 1e-05	< 1e-05	< 1e-05	< 1e-05	
G13U A14C G35U G59C	< 1e-05				
G7A A12C G51C A53G G66A	< 1e-05				
U47C U49A U54G C68A	< 1e-05		< 1e-05		
G13U A39C G44A	< 1e-05		< 1e-05		
G32A G35A	< 1e-05	< 1e-05	< 1e-05	< 1e-05	< 1e-05
G60C G62U	< 1e-05	< 1e-05	< 1e-05		< 1e-05
A6G G35C	< 1e-05	< 1e-05	< 1e-05	< 1e-05	< 1e-05
G40U G41U U46A U47C G51U	< 1e-05				
C8A A12U	< 1e-05	< 1e-05	< 1e-05	< 1e-05	
G40A U55C C61A	< 1e-05				
C10U A33U G35A	< 1e-05		< 1e-05		
C34A U54C C61G	< 1e-05				< 1e-05
G7A C8G A12C	< 1e-05				
A36G G44C A64C C67U	< 1e-05				
G62C	< 1e-05	< 1e-05	< 1e-05	< 1e-05	< 1e-05
U46C A52C	< 1e-05				< 1e-05
G37U U47A C68G	< 1e-05	9e-05 ± 3.5e-05	< 1e-05		
G41A G59C C68A	< 1e-05	< 1e-05	< 1e-05		
C10U C34A	< 1e-05		< 1e-05	< 1e-05	< 1e-05
A12U G32C	< 1e-05	< 1e-05			< 1e-05
A15G G41A U57G	< 1e-05				
A42G C67A	0.000813 ± 0.00013	0.00552 ± 0.0024	0.0213 ± 0.0053	0.008 ± 0.0032	0.00197 ± 0.00067

Variant	self-cleavage kobs at 40 uM GlcN6P (glucosamine-6-phosphate [1]) [s⁻¹]	self-cleavage kobs at 2500 uM GlcN6P (glucosamine-6-phosphate [2]) [s⁻¹]	self-cleavage kobs at 10000 uM GlcN6P (glucosamine-6-phosphate [3]) [s⁻¹]	self-cleavage kobs at 640 uM GlcN6P (glucosamine-6-phosphate [4]) [s⁻¹]	self-cleavage kobs at 160 uM GlcN6P (glucosamine-6-phosphate [5]) [s⁻¹]
C61U A64U	< 1e-05	< 1e-05	< 1e-05	< 1e-05	< 1e-05
A33G U56G	< 1e-05		< 1e-05	< 1e-05	
G13A G51A G62C	< 1e-05				
U56C C61U C71U	< 1e-05				
G37U A52U U56C	< 1e-05	< 1e-05		< 1e-05	
A6U C11U C16A U30C C50G	0.000167 ± 2.9e-05	0.000224 ± 9e-05	0.000181 ± 2.9e-05		
A12U G44A C67U	0.00174 ± 0.00037		0.0153 ± 0.006		
A14G G37A A42U U69A	0.000165 ± 2.5e-05		0.0157 ± 0.0032	0.00196 ± 0.00035	
G40U A42U C61A	< 1e-05		< 1e-05		
C8G A48C	< 1e-05	< 1e-05			< 1e-05
A6U C16U U30C	< 1e-05				
A42U U46C G51C C61A	< 1e-05				
G32C G43C A48G	< 1e-05				
G7C U30G	< 1e-05	< 1e-05	< 1e-05	< 1e-05	< 1e-05
A48U U55G G62C	< 1e-05		< 1e-05	< 1e-05	
G44C G59C C61A	< 1e-05	< 1e-05	< 1e-05	< 1e-05	< 1e-05
G9U G62C	< 1e-05		< 1e-05		< 1e-05
A33U G43U C50G G51U	< 1e-05				
U30A A48U	< 1e-05		4.05e-05 ± 1.5e-05		
G9U C10U A36U G51A C70G	< 1e-05				
A33G U47G	< 1e-05		< 1e-05	< 1e-05	< 1e-05
A14C U54A	0.00014 ± 2.7e-05	0.0023 ± 0.0005	0.00985 ± 0.0024	0.00123 ± 0.00021	
C8A C34U G35U G43A U45G U54C	< 1e-05		< 1e-05		
A15U G40U G51U C71U	< 1e-05				
U31A U45A G62U C68A	< 1e-05				
